From PMC3650080, “Structural Insights into the UbiD Protein Family from the Crystal Structure of PA0254 from Pseudomonas aeruginosa” (PLoS ONE, 2013)

B1: UbiD from P. aeruginosa (PA5237) (enzyme, Pseudomonas aeruginosa PAO1, UniProt Q9HTV3 1-488, looked up)
chain: MTFKDLRDFIAQLEQRGALKRIQVPISPVLEMTEVCDRTLRAKGPALLFEKPTGFDMPVLGNLFGTPERVALGMGAEDVGALREIGKLLAQLKEPEPPKGLKDAWAKLPMYRKVLSMAPKVLKDAPCQEVVEEGEDVDLGRLPVQTCWPGDVGPLITWGLTVTRGPNKERQNLGIYRQQVIGRNKVIMRWLSHRGGALDYREWCQKHPGQPYPVAVALGADPATILGAVTPVPDTLSEYAFAGLLRGHRTELVKCRGSDLQVPASAEIVLEGVIHPGEMADEGPYGDHTGYYNEVDRFPVFTVERVTRRQKPIYHSTYTGRPPDEPAILGVALNEVFVPILQKQFPEIVDFYLPPEGCSYRMAVVTMKKQYPGHAKRVMLGVWSFLRQFMYTKFVIVTDDDIDARDWNDVIWAITTRMDPKRDTVMIDNTPIDYLDFASPVSGLGSKMGLDATHKWPGETSREWGRAIVKDEAVTRRIDALWSSLGID
notes: PA5237, UbiD (3-polyprenyl-4-hydroxybenzoate decarboxylase) of Pseudomonas aeruginosa PAO1; construct not described; also called UbiD1; bona fide UbiD
B2: PA0254 from Pseudomonas aeruginosa (UbiD-like protein) (enzyme, Pseudomonas aeruginosa PAO1, UniProt Q9I6N5 1-496, looked up)
chain: MNRSALDFRHFVDHLRRQGDLVDVHTEVDANLEIGAITRRVYERRAPAPLFHNIRDSLPGARVLGAPAGLRADRARAHSRLALHFGLPEHSGPRDIVAMLRAAMRAEPIAPRRLERGPVQENVWLGEQVDLTRFPVPLLHEQDGGRYFGTYGFHVVQTPDGSWDSWSVGRLMLVDRNTLAGPTIPTQHIGIIREQWRRLGKPTPWAMALGAPPAALAAAGMPLPEGVSEAGYVGALVGEPVEVVRTQTNGLWVPANTEIVLEGEISLDETALEGPMGEYHGYSFPIGKPQPLFHVHALSFRDQPILPICVAGTPPEENHTIWGTMISAQLLDVAQNAGLPVDMVWCSYEAATCWAVLSIDVQRLAALGTDAAAFAARVAETVFGSHAGHLVPKLILVGNDIDVTEIDQVVWALATRAHPLHDHFAFPQIRDFPMVPYLDAEDKARGSGGRLVINCLYPEQFAGQMRAATASFRHAYPTALRRRVEERWSDYGFGDA
notes: PA0254, UbiD-like putative 3-polyprenyl-4-hydroxybenzoate decarboxylase of Pseudomonas aeruginosa PAO1; full-length gene (residues 1-496 modelled); calculated mass of His6-PA0254 57053 Da per subunit; The TEV-cleavable His6 tag was not removed (incomplete cleavage); tag residues -7 to 0 are partly seen in the trigonal crystal; A SeMet-substituted form was used for phasing only; also called UbiD2; …

Columns and labels:
[1] = target: the molecule itself; assay: SEC; superdex-200 column (GE-Healthcare) calibrated with Ribonuclease-A, Chymotrypsinogen-A, Ovalbumin, Albumin, Catalase and Ferretin; absorbance at 280 nm
[2] = target: the molecule itself; assay: crystal structure; two crystal forms of His6-PA0254: P2(1) (1 M (NH4)2SO4, 0.1 M Bis-Tris pH 5.5, 1% PEG 3350; 2.3 Å, four subunits in the asymmetric unit) and P3(2)21 (0.1 M Hepes pH 7.5, 0.2 M MgCl2, 10% PEG 400; 1.95 Å, three subunits); dimer told from crystal packing and PISA

| Protein | stoichiometry N [1] | stoichiometry N [2] |
| --- | --- | --- |
| B1 | 6 |  |
| B2 |  | 2 |
